In IntAct's records for PubMed 23871208:

B1: Tyrosine-protein phosphatase non-receptor type 22 (Homo sapiens), Q9Y2R2 (parent)
chain: MDQREILQKFLDEAQSKKITKEEFANEFLKLKRQSTKYKADKTYPTTVAEKPKNIKKNRYKDILPYDYSRVELSLITSDEDSSYINANFIKGVYGPKAYIATQGPLSTTLLDFWRMIWEYSVLIIVMACMEYEMGKKKCERYWAEPGEMQLEFGPFSVSCEAEKRKSDYIIRTLKVKFNSETRTIYQFHYKNWPDHDVPSSIDPILELIWDVRCYQEDDSVPICIHCSAGCGRTGVICAIDYTWMLLKDGIIPENFSVFSLIREMRTQRPSLVQTQEQYELVYNAVLELFKRQMDVIRDKHSGTESQAKHCIPEKNHTLQADSYSPNLPKSTTKAAKMMNQQRTKMEIKESSSFDFRTSEISAKEELVLHPAKSSTSFDFLELNYSFDKNADTTMKWQTKAFPIVGEPLQKHQSLDLGSLLFEGCSNSKPVNAAGRYFNSKVPITRTKSTPFELIQQRETKEVDSKENFSYLESQPHDSCFVEMQAQKVMHVSSAELNYSLPYDSKHQIRNASNVKHHDSSALGVYSYIPLVENPYFSSWPPSGTSSKMSLDLPEKQDGTVFPSSLLPTSSTSLFSYYNSHDSLSLNSPTNISSLLNQESAVLATAPRIDDEIPPPLPVRTPESFIVVEEAGEFSPNVPKSLSSAVKVKIGTSLEWGGTSEPKKFDDSVILRPSKSVKLRSPKSELHQDRSSPPPPLPERTLESFFLADEDCMQAQSIETYSTSYPDTMENSTSSKQTLKTPGKSFTRSKSLKILRNMKKSICNSCPPNKPAESVQSNNSSSFLNFGFANRFSKPKGPRNPPPTWNI
partner: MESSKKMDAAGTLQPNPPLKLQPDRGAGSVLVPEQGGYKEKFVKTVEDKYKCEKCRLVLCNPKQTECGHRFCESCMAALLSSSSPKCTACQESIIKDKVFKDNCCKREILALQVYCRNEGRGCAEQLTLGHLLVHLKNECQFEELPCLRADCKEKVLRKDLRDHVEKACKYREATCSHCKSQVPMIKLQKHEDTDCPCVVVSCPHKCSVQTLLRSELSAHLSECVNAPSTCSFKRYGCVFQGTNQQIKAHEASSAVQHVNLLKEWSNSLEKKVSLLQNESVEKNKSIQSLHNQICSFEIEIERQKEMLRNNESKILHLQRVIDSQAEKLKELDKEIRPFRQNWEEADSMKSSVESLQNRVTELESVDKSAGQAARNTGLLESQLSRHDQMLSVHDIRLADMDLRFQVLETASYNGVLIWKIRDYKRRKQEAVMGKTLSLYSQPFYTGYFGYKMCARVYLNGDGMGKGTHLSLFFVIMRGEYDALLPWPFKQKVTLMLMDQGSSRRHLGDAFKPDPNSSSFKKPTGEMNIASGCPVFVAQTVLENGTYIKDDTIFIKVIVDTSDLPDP

Variants of: B1
Conditions: with traf3_mouse Traf3, Q60803

| effect of a mutation on the interaction | Variant |
| --- | --- |
| decreasing interaction strength | R620W |
